Measured values as given in US7223734B2, “Plasma protein-binding ligands” (The American National Red Cross, priority 2002, dated 2007).
Non-standard residues stand in square brackets, D forms with d. No end group written: not given here. 2Nal = N[C@@H](Cc1ccc2ccccc2c1)C(=O)O

Key:
vWF/fVIII [1] = molecular target: T1, vWF/fVIII (Homo sapiens, UniProt P04275); test: Primary screening of 6-mer library for vWF/fVIII ligands; assay type: binding; design: from tissue; host or cells: human plasma (first round also purified vWF of unstated origin); conditions: bead screening, immunodetection
Method: The ToyoPearl 650-M amino resin displaying the library of D- or L-hexamers ([…]) was incubated either with plasma or purified vWF in TBS buffer or EQ buffer. The captured proteins were subsequently eluted stepwise from the resin beads with sodium chloride (0.5 M, 1.0 M, 2.0 M) and guanidine (2–6 M). The target proteins were detected immunologically after transfer onto a PVDF membrane. One of three detection strategies was employed to detect target protein binding. A one-step immunodetection assay using a specific HRP-conjugated polyclonal sheep anti-human vWF antibody was performed. A differential-subtractive immuno-detection assay entailed detecting proteins transferred onto membranes with specific HRP-conjugated polyclonal sheep anti-human vWF antibody in 1:10,000 dilution (AHP062P; Serotec) followed by exposure to chemiluminescence substrate ECLPlus. Membranes were stripped and re-probed with rabbit anti-human albumin antibody (No. A0433, Lot No. 031K4897 from Sigma) followed by secondary alkaline phosphatase-labeled goat anti rabbit antibody (Tropix). Following film development, films were aligned and dots that appeared on films for vWF and on albumin films were deemed background signal. Dots positive for vWF but not for albumin were considered positive. A detection assay using radio-labeled antibody also was performed. Freshly I125-radiolabeled monoclonal anti-human vWF antibody, 101.104 (VWFAE; Enzyme Research) in dilution 1:250 in hSA-Hepes-0.14 M NaCl-Tween buffer was used for detection. After washing, membranes were exposed to Kodak films for 48 hrs at −80° C. Positive beads were picked and prepared for re-probing.
All beads collected from several gels were pooled in the same tube, washed with water and incubated in 8 M Guanidine to remove remaining proteins before re-probing. After extensive washing with water and citrate buffer, the resin beads were blocked with 3% human albumin for 2 hours and incubated with human plasma. Resin beads were immobilized in agarose gels (6 cm×7 cm) and target protein was transferred to a PVDF membrane in 2 M NaCl for 20 hours. Membranes were blocked, incubated with 101.104 anti-vWF antibody, and detected with secondary goat/anti-mouse-HRP. In some experiments, sheep anti-human vWF antibody conjugated with HRP was used for detection. Positive beads were picked, washed, and the attached ligands were sequenced.
For some re-probing experiments, resin beads linked to target proteins were visualized by adding specific antibody and color substrate to facilitate further alignment. Detection of a target protein bound to the resin beads by non-labeled monoclonal antibody 101.104 anti-vWF was used followed by goat/anti-mouse antibody conjugated with alkaline phophatase and FastRed prior to immobilizing beads in the agarose gel. Additional substrate CDPStar was applied directly onto a gel with immobilized beads, and the gel was exposed to a Kodak film. Dark spots on the film were correlated with red spots on the gel to ensure appropriate alignment. The proteins from resin beads immobilized in the gel were transferred onto a membrane and developed again with radiolabeled monoclonal antibody against vWF. The films and gel were aligned, and resin beads that appeared positive in all stages were picked, washed, and attached ligands sequenced.

vWF/fVIII [2] = molecular target: T1, vWF/fVIII; test: Removal of vWF/fVIII from plasma on D-EADna2′ED resin, fVIII chromogenic assay (Example 11); assay type: binding; design: from tissue; host or cells: pooled human plasma; conditions: for FVIII / Total FVIII: Chromogenic Assay
Method: (§1) Pooled human plasma (20 ml) was added to 0.8 ml of resin and incubated for 30 minutes while gently rotating. Resin was settled under gravity or by short gentle centrifugation, and the supernatant was collected (the equivalent of “flow-through” of the previous examples). The resin was then packed into an Omni column and the chromatography was completed using the ÄKTAExplorer system. The flow rate was kept constant at 0.4 ml/min (LV=31 cm/h; retention time=2 minutes). After washing of the resin with EQ buffer to baseline, the bound proteins were eluted from the resin with 10 column volumes (CV) of 0.5 M NaCl, followed by 10 CVs of 0.75 M NaCl, 1.0 M NaCl/1% Tween (all in 0.02 M sodium citrate, pH 7.0) and 2.0 M guanidine. Twenty-five microliters of 0.4 M calcium chloride was added to each fraction collected, and the fractions were evaluated by OD reading and Western Blots for vWF and fVIII antigen. The fVIII activity of pooled fractions was determined by chromogenic and coagulation assays.

vWF/fVIII [3] = molecular target: T1, vWF/fVIII; test: Removal of vWF/fVIII from plasma on D-EADna2′ED resin, fVIII coagulation assay (Example 11); assay type: binding; design: from tissue; host or cells: pooled human plasma
Method: as §1

API = molecular target: T2, API (Homo sapiens, UniProt P01009); test: Primary screening of 6-mer library for API-binding ligands; conditions: bead screening, immunodetection / radiolabel
T2 construct: from tissue; host or cells: human plasma (whole, fibrinogen-depleted or F1-Apo-depleted)
Method: Peptide libraries attached to Toyopearl-AF Amino 650M resin or Tentagel resin were evaluated with 14C-labeled fibrinogen and API. All steps were performed at room temperature. Specifically, 20 mg of Toyopearl resin beads or 40 mg of Tentagel resin beads were suspended in 20% methanol for a minimum of 2 hours in 15 ml conical polypropylene tubes (Corning). After rinsing with distilled water, the resin beads were equilibrated in 0.15 M NaCl, 0.020 M sodium citrate, pH 7.3. The resin beads were then blocked for 2 hours with 1% casein (Sigma) in 0.15M NaCl, 0.020M sodium citrate, pH 7.3. Following blocking, the resin beads were centrifuged and the supernatant removed. A solution containing 1 mM of C^14-labeled fibrinogen or 30 μM of C^14-labeled API was applied to the resin beads in the blocking solution in the presence of 0.1% Tween-20 (Sigma). The materials were incubated for 2 hours. The resin beads were washed with 0.15 M NaCl, 0.020 M sodium citrate, 0.05% Tween-20, pH 7.3, in a batch method (fibrinogen ligands) or in disposable BioRad 10 ml columns (API ligands) until radiation counts reached the background level of less than 40 DPM. The resin beads were divided into separate tubes to obtain approximately 5–10 mg of resin beads per sheet. This was accomplished by mixing each aliquot of resin beads with 20–22 ml of 1% low melting agarose solution (Sigma) at less than 40° C., and rapidly pouring the mixture onto GelBond® film sheets (BMA Cat. No. 53749, 16×18 cm; Cat. No. 53759, 12.5×24.5 cm). Spreading of the resin beads to the edge of the gel sheets was prevented by creating frames (about 23 cm×about 10 cm or about 15 cm×about 15 cm) with several layers of masking tape. About 20–22 ml of resin bead-agarose mixture was plated on each GelBond sheet. Special care was taken to spread the beads in an even monolayer to facilitate identification and isolation of individual “hot” beads. The agarose gel was then air-dried overnight and placed, bead side down, on X-ray film (Kodak Biomax MR). The agarose and autoradiography film were exposed for 4–14 days followed by a second exposure of 7 days in an about 20 cm×about 25 cm stainless steel cassette. Afterwards, the films were taped together and marked with several staple holes to ensure proper alignment of beads in agarose to film. After the films were developed, the positive beads that appeared on both films were identified under the microscope and picked by aligning the developed film(s) and agarose gel via the staple holes. Beads to be sequenced were carefully picked by cutting a square trench around the bead with a scalpel, and hydrating this area with distilled water. […]

paraoxonase = conditions: resin bead suspension
Method: Paraoxonase binding to a WWLHAN (SEQ ID NO: 56)-displaying resin was evaluated according to the following protocol. Rabbit serum diluted 1/10 times with PBS ([…]) was incubated in a rotating Eppendorf tube with 50 μl of D-WWLHAN (SEQ ID NO: 56)-displaying resin suspension containing approximately […] of resin. The resin was previously soaked in 20% methanol overnight and washed 3 times with PBS to remove the methanol traces and resuspended in paraoxonase assay buffer (20 mM Tris pH 8.0, 150 mM NaCl, and 2 mM CaCl2). After 1 hour incubation at 37° C., resin beads were precipitated by centrifugation at 8000 g for 1 min in an Eppendorf microcentrifuge. Supernatants were transferred into separate Eppendorf tubes and resin bead pellets were resuspended in equal volumes of paraoxonase assay buffer. Paraoxonase activity of resin bead suspensions and supernatant solutions was measured. In particular, 100 μl of paraoxonase assay buffer containing 100 μm of DEPFMU (a fluorogenic substrate for paraoxonase detection) was mixed with […] of supernatant or 10 μl of resin bead suspension, or the original serum solution in a standard microtiter plate well. After thorough mixing, the plate solution was incubated for 20 minutes at 37° C. Hydrolysis of DEPFMU was quantified by measuring the fluorescence level at […] using a commercial fluorometer. The level of fluorescence correlates with the level of 6,8-difluoro-4-methylumbelliferyl released from DEPFMU as a result of paraoxonase-mediated hydrolysis. The actual amount of 6,8-difluoro-4-methylumbelliferyl released in the assay can be calibrated with a known amount of 6,8-difluoro-4-methylumbelliferyl.
Several different D-WWLHIN (SEQ ID NO: 33) analogs were screened for the ability to bind to paraoxonase under the conditions described in Example 7. For this experiment, the following resins were tested: WWLHAN (SEQ ID NO: 56), AWLHIN (SEQ ID NO: 59), WALHIN (SEQ ID NO: 60), WWAHIN (SEQ ID NO: 61), WWLHIA (SEQ ID NO: 63), WYLHIN (SEQ ID NO: 35), WWLFIN (SEQ ID NO: 36), and na1′WLHIN (SEQ ID NO: 40).

T2 sequence (P01009 25-418): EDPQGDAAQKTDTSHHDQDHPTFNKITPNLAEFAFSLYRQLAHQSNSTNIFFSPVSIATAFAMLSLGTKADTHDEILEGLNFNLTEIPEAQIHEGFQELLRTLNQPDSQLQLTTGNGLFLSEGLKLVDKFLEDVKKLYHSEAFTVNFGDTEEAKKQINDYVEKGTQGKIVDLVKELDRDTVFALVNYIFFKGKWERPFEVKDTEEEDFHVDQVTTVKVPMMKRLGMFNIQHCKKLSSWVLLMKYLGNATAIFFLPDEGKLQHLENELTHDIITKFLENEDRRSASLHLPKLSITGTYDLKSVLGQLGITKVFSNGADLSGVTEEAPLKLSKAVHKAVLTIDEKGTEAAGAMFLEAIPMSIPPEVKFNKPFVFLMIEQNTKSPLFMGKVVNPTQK

EADna2′ED (EAD[2Nal]ED; not fully specified; also: D-amino acids, positions not given here) [D-EADna2′ED]
identified as vWF/fVIII binding peptide from the 6-mer library (vWF/fVIII [1]): vWF/fVIII binding
FVIII (vWF/fVIII [2]; Elution 1 (0.75 M NaCl)): 0.46 IU/ml
Total FVIII (vWF/fVIII [2]; Elution 1 (0.75 M NaCl)): 4.6 IU
FVIII (vWF/fVIII [2]; Elution 2 (1.0 M NaCl)): 0 IU/ml
Total FVIII (vWF/fVIII [2]; Elution 2 (1.0 M NaCl)): 0 IU
Total FVIII (vWF/fVIII [2]; Flow-Through, load 21.4 IU): 1.6 IU
FVIII (vWF/fVIII [2]; Flow-Through, plasma load 20 ml, 1.07 IU/ml): 0.08 IU/ml
FVIII (vWF/fVIII [2]; Wash (0.5 M NaCl)): 0.12 IU/ml
Total FVIII (vWF/fVIII [2]; Wash (0.5 M NaCl)): 1.2 IU
binding of vWF/fVIII by the resin (vWF/fVIII [2]; plasma, fVIII activity and Western Blot for vWF): binds vWF/fVIII
FVIII (vWF/fVIII [3]; Elution 1 (0.75 M NaCl)): 0.39 IU/ml
Total FVIII (vWF/fVIII [3]; Elution 1 (0.75 M NaCl)): 3.9 IU
FVIII (vWF/fVIII [3]; Elution 2 (1.0 M NaCl)): 0 IU/ml
Total FVIII (vWF/fVIII [3]; Elution 2 (1.0 M NaCl)): 0 IU
Total FVIII (vWF/fVIII [3]; Flow-Through, load 8.46 IU): 1.6 IU
FVIII (vWF/fVIII [3]; Flow-Through, plasma load 0.423 IU/ml): 0.08 IU/ml
FVIII (vWF/fVIII [3]; Wash (0.5 M NaCl)): 0 IU/ml
Total FVIII (vWF/fVIII [3]; Wash (0.5 M NaCl)): 0 IU

EDSWDV
identified as vWF/fVIII binding peptide from the 6-mer library (vWF/fVIII [1]): vWF/fVIII binding

HFDLHR
identified as API-binding peptide ligand from the 6-mer library (API): API-binding

LEDna2′EE (LED[2Nal]EE)
identified as vWF/fVIII binding peptide from the 6-mer library (vWF/fVIII [1]): vWF/fVIII binding

QWFPEK
identified as vWF/fVIII binding peptide from the 6-mer library (vWF/fVIII [1]): vWF/fVIII binding

WALHIN [D-WALHIN]
paraoxonase activity of bead fractions (paraoxonase): Significant activity

WWAHIN [D-WWAHIN]
paraoxonase activity of bead fractions (paraoxonase): Significant activity

WWLFIN [D-WWLFIN]
paraoxonase activity of bead fractions (paraoxonase): Significant activity

YHLGWL
identified as vWF/fVIII binding peptide from the 6-mer library (vWF/fVIII [1]): vWF/fVIII binding

YLHYQT
identified as vWF/fVIII binding peptide from the 6-mer library (vWF/fVIII [1]): vWF/fVIII binding

YVDEDD
identified as vWF/fVIII binding peptide from the 6-mer library (vWF/fVIII [1]): vWF/fVIII binding
